Results published in US20180250426A1 (GEORGIA STATE UNIVERSITY RESEARCH FOUNDATION, published 2018).

Key:
[1] = biological target: T1, GRPR (GRP receptor) (UniProt P30550 1-384, limits assumed); assay: confocal immunofluorescence with a CD2 antibody and Alexa Fluor 488 on GRPR-high PC-3 and DU145 cells at 37 °C; GRPR-low H441 cells as control
T1 construct: whole, on cells; also called gastrin release peptide receptor
Protocol: (§1) In the second day, fresh medium was changed. Contrast agents were incubated with cells at different time point at 37° C. […] After cells were rinsed in PBS for three times, 0.2% Triton X-100 was added to permeablize cells for 10 minutes. […] After three time washes, CD2 antibody was used as primary antibody.

[2] = biological target: T2, HER2 (human, UniProt P04626 23-1255); assay: immunofluorescence staining of AU565 cells (HER2 high) with PAbPGCA1
T2 construct: whole, on cells; also called cell surface HER2
From the text: We used two cancer cell lines for the binding analyses. AU565 is derived from breast carcinoma. EMT6 is a mouse mammary tumor cell line. AU565 cells express very high levels of HER2. The EMT is regarded as a HER2 negative cell line.

[3] = biological target: T1, GRPR (GRP receptor); assay: confocal immunofluorescence with a CD2 antibody and Alexa Fluor 488 on GRPR-high PC-3 and DU145 cells; CA1-CD2 without the bombesin sequence as control
Protocol: as §1

T1 sequence (P30550 whole entry): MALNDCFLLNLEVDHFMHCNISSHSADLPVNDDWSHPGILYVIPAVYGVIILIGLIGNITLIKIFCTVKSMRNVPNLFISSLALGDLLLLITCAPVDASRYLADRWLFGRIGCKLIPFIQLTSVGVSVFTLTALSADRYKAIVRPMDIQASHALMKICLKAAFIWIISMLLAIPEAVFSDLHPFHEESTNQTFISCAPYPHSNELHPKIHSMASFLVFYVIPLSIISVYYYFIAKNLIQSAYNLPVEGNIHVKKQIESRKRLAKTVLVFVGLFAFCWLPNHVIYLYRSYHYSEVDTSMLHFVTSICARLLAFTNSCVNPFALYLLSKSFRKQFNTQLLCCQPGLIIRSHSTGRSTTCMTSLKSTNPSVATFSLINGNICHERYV

| binding result [1] | binding result [2] | binding result [3] | Binder |
| --- | --- | --- | --- |
| binds | – | – | CA1.CD2-52I-Bom (designed binder, also called CA1.Bom) RDSGTVWGALGHGIELNIPNFQMTDDIDEVRWERGSTLVAEFKRKMKPFLKSGGSGGGNQWAVGHLMGGSGGGAFEIDANGDLDIKNLTRDDSGTYNVTVYSTNGTRILNKALDLRILE |
| – | no binding | no binding | CA1.CD2 (designed binder, domain: domain 1; 12 kDa, expressed in E. coli; in most assays loaded with Gd3+; also called Gd-CA1.CD2) RDSGTVWGALGHGIELNIPNFQMTDDIDEVRWERGSTLVAEFKRKMKPFLKSGAFEIDANGDLDIKNLTRDDSGTYNVTVYSTNGTRILNKALDLRILE |
